Source: patent publication US20190077860A1 (EISAI R AND D MANAGEMENT, published 2019)

T1: human EphB2 extracellular region-SEAP-His protein (human, UniProt P29323 19-543)
T1 construct: extracellular domain; also called hEphB2-SEAP-His
T1 sequence (looked up): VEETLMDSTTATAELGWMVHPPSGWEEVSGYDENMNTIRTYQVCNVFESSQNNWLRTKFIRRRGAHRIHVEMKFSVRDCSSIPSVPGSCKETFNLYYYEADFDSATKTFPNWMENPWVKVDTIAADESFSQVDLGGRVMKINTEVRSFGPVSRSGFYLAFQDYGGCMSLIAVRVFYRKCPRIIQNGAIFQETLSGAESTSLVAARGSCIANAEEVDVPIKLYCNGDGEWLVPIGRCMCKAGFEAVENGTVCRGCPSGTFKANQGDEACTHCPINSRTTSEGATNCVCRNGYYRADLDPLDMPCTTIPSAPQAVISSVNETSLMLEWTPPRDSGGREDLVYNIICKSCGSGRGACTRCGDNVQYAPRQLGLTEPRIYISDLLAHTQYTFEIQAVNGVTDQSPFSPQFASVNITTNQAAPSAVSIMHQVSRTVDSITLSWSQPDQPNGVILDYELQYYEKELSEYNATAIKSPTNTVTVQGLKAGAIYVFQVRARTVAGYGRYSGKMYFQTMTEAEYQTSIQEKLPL

T2: human EphB3 extracellular region-SEAP-His protein (human, UniProt P54753 34-559)
T2 construct: extracellular domain; also called hEphB3-SEAP-His
T2 sequence (looked up): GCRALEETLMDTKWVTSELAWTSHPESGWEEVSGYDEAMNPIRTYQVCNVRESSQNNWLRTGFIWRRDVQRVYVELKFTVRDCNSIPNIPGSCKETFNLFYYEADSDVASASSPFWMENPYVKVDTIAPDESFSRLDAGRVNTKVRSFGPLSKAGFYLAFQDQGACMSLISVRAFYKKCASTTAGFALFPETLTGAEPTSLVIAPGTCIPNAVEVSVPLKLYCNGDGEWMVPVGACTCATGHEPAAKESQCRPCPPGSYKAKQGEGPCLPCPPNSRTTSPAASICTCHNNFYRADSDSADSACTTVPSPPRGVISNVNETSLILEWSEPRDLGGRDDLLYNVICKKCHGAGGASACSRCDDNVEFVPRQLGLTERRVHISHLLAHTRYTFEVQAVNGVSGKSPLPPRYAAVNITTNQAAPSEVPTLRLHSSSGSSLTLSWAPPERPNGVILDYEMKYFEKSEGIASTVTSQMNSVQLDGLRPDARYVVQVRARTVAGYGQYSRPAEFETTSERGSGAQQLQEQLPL

T3: human EphA3 extracellular region-SEAP-His protein (human, UniProt P29320 21-541)
T3 construct: extracellular domain; also called hEphA3-SEAP-His
T3 sequence (looked up): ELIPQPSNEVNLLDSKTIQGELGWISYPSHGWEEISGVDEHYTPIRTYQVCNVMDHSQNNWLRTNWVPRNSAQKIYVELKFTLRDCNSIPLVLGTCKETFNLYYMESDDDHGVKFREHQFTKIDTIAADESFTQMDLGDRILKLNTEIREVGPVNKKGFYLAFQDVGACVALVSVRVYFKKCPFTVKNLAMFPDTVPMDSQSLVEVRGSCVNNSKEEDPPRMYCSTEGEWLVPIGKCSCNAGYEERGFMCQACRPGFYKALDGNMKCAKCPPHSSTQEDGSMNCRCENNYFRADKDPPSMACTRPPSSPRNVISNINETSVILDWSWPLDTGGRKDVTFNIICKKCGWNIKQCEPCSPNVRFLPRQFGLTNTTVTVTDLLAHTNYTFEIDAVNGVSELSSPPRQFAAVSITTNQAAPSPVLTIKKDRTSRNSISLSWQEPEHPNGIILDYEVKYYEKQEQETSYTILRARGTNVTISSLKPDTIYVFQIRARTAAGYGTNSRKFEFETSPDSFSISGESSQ

T4: human EphA1 extracellular region-SEAP-His protein (human, UniProt P21709 26-547)
T4 construct: extracellular domain; also called hEphA1-SEAP-His
T4 sequence (looked up): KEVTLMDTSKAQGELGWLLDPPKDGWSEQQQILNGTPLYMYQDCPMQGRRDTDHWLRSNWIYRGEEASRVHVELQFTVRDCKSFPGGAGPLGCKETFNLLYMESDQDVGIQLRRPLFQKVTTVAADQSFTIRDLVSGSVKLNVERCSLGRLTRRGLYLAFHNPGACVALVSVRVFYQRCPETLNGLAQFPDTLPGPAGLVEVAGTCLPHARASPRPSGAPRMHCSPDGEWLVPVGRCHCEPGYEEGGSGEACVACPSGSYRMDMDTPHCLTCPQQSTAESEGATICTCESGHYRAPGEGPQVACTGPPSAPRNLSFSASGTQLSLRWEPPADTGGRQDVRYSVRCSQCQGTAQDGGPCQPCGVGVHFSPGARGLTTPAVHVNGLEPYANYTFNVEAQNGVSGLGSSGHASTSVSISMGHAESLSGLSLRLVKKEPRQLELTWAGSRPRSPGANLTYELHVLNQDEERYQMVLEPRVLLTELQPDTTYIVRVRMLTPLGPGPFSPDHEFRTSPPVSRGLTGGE


Assays:
Test in all cases: ELISA
[1] = biological target: T5, human EphA5 extracellular region-SEAP-His protein (human, UniProt P54756 25-573)
T5 construct: extracellular domain; also called hEphA5-SEAP-His
T5 sequence (P54756 25-573): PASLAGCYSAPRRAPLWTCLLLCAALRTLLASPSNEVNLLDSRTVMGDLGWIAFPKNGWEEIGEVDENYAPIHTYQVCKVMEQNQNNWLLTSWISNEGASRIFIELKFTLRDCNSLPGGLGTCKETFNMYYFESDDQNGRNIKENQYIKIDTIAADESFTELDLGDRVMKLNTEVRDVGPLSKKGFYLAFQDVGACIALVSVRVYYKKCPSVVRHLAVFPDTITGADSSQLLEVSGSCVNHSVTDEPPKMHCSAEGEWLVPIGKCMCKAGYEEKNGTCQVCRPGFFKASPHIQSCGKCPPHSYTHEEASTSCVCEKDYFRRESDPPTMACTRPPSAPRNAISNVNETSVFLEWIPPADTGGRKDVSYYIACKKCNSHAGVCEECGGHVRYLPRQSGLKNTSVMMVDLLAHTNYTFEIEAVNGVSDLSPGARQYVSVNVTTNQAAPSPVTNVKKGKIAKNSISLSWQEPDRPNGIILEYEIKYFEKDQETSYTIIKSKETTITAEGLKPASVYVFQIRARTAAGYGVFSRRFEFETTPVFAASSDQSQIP

[2] = biological target: T1, human EphB2 extracellular …
SEAP-His = SEAP-His (UniProt P05187 23-511)
Sequence of SEAP-His (P05187 23-511): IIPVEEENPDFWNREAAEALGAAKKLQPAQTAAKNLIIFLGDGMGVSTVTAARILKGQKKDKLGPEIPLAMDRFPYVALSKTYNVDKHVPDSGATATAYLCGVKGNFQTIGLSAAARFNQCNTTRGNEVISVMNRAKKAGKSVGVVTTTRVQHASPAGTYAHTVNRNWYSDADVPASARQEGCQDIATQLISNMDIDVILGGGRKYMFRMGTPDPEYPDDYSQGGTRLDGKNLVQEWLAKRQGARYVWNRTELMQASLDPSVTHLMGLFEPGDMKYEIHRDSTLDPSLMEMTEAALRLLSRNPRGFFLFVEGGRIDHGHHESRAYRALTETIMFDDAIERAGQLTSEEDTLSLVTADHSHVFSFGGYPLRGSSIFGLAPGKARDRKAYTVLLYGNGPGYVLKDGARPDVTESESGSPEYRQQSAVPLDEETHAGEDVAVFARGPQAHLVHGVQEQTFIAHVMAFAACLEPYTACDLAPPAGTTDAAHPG

[3] = biological target: T2, human EphB3 extracellular …
[4] = biological target: T3, human EphA3 extracellular …
[5] = biological target: T4, human EphA1 extracellular …

A450 as % of hEphA4-SEAP-His [1] | A450 as % of hEphA4-SEAP-His [2] | A450 as % of hEphA4-SEAP-His (SEAP-His) | A450 as % of hEphA4-SEAP-His [3] | A450 as % of hEphA4-SEAP-His [4] | A450 as % of hEphA4-SEAP-His [5] | Binder
6.5% | 6.2% | 6.3% | 6.2% | 6.2% | 6.5% | humanized antibody No. 160 (antibody, human IgG2, human Ig kappa; also called L1-6/HK4) heavy: QIQLVQSGSELKKPGASVKVSCKASGYTFTDYSMHWVRQAPGQGLKWMGWINTETGEPTYADDFKGRFVFSLDTSVSTAYLQISSLKAEDTAVYYCARIPLYYYGSRYWYFDVWGQGTTVTVSSASTKGPSVFPLAPSSRSTSESTAALGCLVKDYFPEPVTVSWNSGALTSGVHTFPAVLQSSGLYSLSSVVTVPSSNFGTQTYTCNVDHKPSNTKVDKTVERKSCVECPPCPAPPAAAPSVFLFPPKPKDTLMISRTPEVTCVVVDVSHEDPEVQFNWYVDGVEVHNAKTKPREEQFNSTFRVVSVLTVVHQDWLNGKEYKCKVSNKGLPAPIEKTISKTKGQPREPQVYTLPPSREEMTKNQVSLTCLVKGFYPSDIAVEWESNGQPENNYKTTPPMLDSDGSFFLYSKLTVDKSRWQQGNVFSCSVMHEALHNHYTQKSLSLSPG light: DIQMTQSPSSLSASVGDRVTITCRASENIYRNLAWYQQKPGKAPQLLLYAATNLADGVPSRFSGSGSGTDYTLTISSLQPEDFATYYCQHFWGTPWTFGQGTKVEIKRTVAAPSVFIFPPSDEQLKSGTASVVCLLNNFYPREAKVQWKVDNALQSGNSQESVTEQDSKDSTYSLSSTLTLSKADYEKHKVYACEVTHQGLSSPVTKSFNRGEC
5.2% | 5.1% | 5.1% | 5.2% | 5% | 5.1% | humanized antibody No. 134 (antibody, human IgG2, human Ig kappa; also called L2-4/HA2) heavy: QVQLVQSGSELKKPGASVKVSCKASGYTFTDYSMHWVRQAPGQGLKWMGWINTETGEPTYAQGFTGRFVFSLDTSVSTAYLQISSLKAEDTAVYYCARIPLYYYGSRYWYFDVWGQGTTVTVSSASTKGPSVFPLAPSSRSTSESTAALGCLVKDYFPEPVTVSWNSGALTSGVHTFPAVLQSSGLYSLSSVVTVPSSNFGTQTYTCNVDHKPSNTKVDKTVERKSCVECPPCPAPPAAAPSVFLFPPKPKDTLMISRTPEVTCVVVDVSHEDPEVQFNWYVDGVEVHNAKTKPREEQFNSTFRVVSVLTVVHQDWLNGKEYKCKVSNKGLPAPIEKTISKTKGQPREPQVYTLPPSREEMTKNQVSLTCLVKGFYPSDIAVEWESNGQPENNYKTTPPMLDSDGSFFLYSKLTVDKSRWQQGNVFSCSVMHEALHNHYTQKSLSLSPG light: EIVMTQSPATLSVSPGERATLSCRASENIYRNLAWYQQKPGQSPRLLIYAATNLADGIPARFSGSGSGTEYTLTISSLQSEDFAVYYCQHFWGTPWTFGQGTKVEIKRTVAAPSVFIFPPSDEQLKSGTASVVCLLNNFYPREAKVQWKVDNALQSGNSQESVTEQDSKDSTYSLSSTLTLSKADYEKHKVYACEVTHQGLSSPVTKSFNRGEC
4.7% | 4.6% | 4.7% | 4.7% | 5% | 4.9% | humanized antibody No. 133 (antibody, human IgG2, human Ig kappa; also called L2-4/HA1) heavy: QVQLVQSGSELKKPGASVKVSCKASGYTFTDYSMHWVRQAPGQGLEWMGWINTETGEPTYAQGFTGRFVFSLDTSVSTAYLQISSLKAEDTAVYYCARIPLYYYGSRYWYFDVWGQGTTVTVSSASTKGPSVFPLAPSSRSTSESTAALGCLVKDYFPEPVTVSWNSGALTSGVHTFPAVLQSSGLYSLSSVVTVPSSNFGTQTYTCNVDHKPSNTKVDKTVERKSCVECPPCPAPPAAAPSVFLFPPKPKDTLMISRTPEVTCVVVDVSHEDPEVQFNWYVDGVEVHNAKTKPREEQFNSTFRVVSVLTVVHQDWLNGKEYKCKVSNKGLPAPIEKTISKTKGQPREPQVYTLPPSREEMTKNQVSLTCLVKGFYPSDIAVEWESNGQPENNYKTTPPMLDSDGSFFLYSKLTVDKSRWQQGNVFSCSVMHEALHNHYTQKSLSLSPG light: EIVMTQSPATLSVSPGERATLSCRASENIYRNLAWYQQKPGQSPRLLIYAATNLADGIPARFSGSGSGTEYTLTISSLQSEDFAVYYCQHFWGTPWTFGQGTKVEIKRTVAAPSVFIFPPSDEQLKSGTASVVCLLNNFYPREAKVQWKVDNALQSGNSQESVTEQDSKDSTYSLSSTLTLSKADYEKHKVYACEVTHQGLSSPVTKSFNRGEC
4.7% | 4.7% | 4.9% | 4.7% | 4.8% | 4.8% | humanized antibody No. 132 (antibody, human IgG2, human Ig kappa; also called L2-4/HA4) heavy: QIQLVQSGSELKKPGASVKVSCKASGYTFTDYSMHWVRQAPGQGLKWMGWINTETGEPTYAQGFTGRFVFSLDTSVSTAYLQISSLKAEDTAVYYCARIPLYYYGSRYWYFDVWGQGTTVTVSSASTKGPSVFPLAPSSRSTSESTAALGCLVKDYFPEPVTVSWNSGALTSGVHTFPAVLQSSGLYSLSSVVTVPSSNFGTQTYTCNVDHKPSNTKVDKTVERKSCVECPPCPAPPAAAPSVFLFPPKPKDTLMISRTPEVTCVVVDVSHEDPEVQFNWYVDGVEVHNAKTKPREEQFNSTFRVVSVLTVVHQDWLNGKEYKCKVSNKGLPAPIEKTISKTKGQPREPQVYTLPPSREEMTKNQVSLTCLVKGFYPSDIAVEWESNGQPENNYKTTPPMLDSDGSFFLYSKLTVDKSRWQQGNVFSCSVMHEALHNHYTQKSLSLSPG light: EIVMTQSPATLSVSPGERATLSCRASENIYRNLAWYQQKPGQSPRLLIYAATNLADGIPARFSGSGSGTEYTLTISSLQSEDFAVYYCQHFWGTPWTFGQGTKVEIKRTVAAPSVFIFPPSDEQLKSGTASVVCLLNNFYPREAKVQWKVDNALQSGNSQESVTEQDSKDSTYSLSSTLTLSKADYEKHKVYACEVTHQGLSSPVTKSFNRGEC
